In patent publication US20230201364A1 (BRIGHT PEAK THERAPEUTICS, published 2023):

Columns and labels:
[1] = molecular target: T1, recombinant biotinylated human Fc gamma receptor I (FcγRI/CD64) (human, UniProt P12314 16-288, limits assumed, biotinylated); test: AlphaLISA competition: test antibody titrated against biotinylated human FcγRI on donor beads; competitor: human IgG Fc on acceptor beads; signal normalized to %
T1 construct: also called FcgRI
Method: (§1) The interaction of the unmodified and of conjugated antibodies with human Fc gamma receptors I (FcγRI/CD64), with human Fc gamma receptors II (FcγRIIa/CD32), and with low affinity human Fc gamma receptors III FcγR3a/CD16 V158 were measured using the AlphaLISA® Human FcγR1/CD64 (AL3081C), FcγRIIa/CD32a 167H (AL3086C), and FcγRIII/CD16 176P/F158 (AL3471HV) binding Kits respectively (Perkin Elmer, Schwerzenbach, Switzerland).
(§2) After 90 min at 23° C. in the dark, AlphaLISA® signal was measured on an EnSpire plate reader (Excitation at 680 nm, Emission at 615 nm) from Perkin Elmer (Schwerzenbach, Switzerland).

[2] = molecular target: T2, recombinant biotinylated human Fc gamma receptor IIIa (FcγRIIIa/CD16) (human, UniProt P08637 17-208, limits assumed, biotinylated); test: AlphaLISA competition; test molecule titrated against human IgG Fc acceptor beads for biotinylated FcγRIIIa
T2 construct: Allotype given inconsistently (V158 against 176P/F158); also called FcgRIIIa; FcγR3a
Method: as §1, §2

[3] = molecular target: T1, recombinant biotinylated human Fc gamma …; test: AlphaLISA competition; test molecule titrated against human IgG Fc acceptor beads for biotinylated FcγRI
Method: as §1, §2

[4] = molecular target: T3, recombinant biotinylated human neonatal Fc receptor (FcRn) (human, UniProt P55899 24-297; P61769 21-119, limits assumed, biotinylated); test: AlphaLISA competition at pH 6; test molecule titrated against human IgG acceptor beads for biotinylated human FcRn
T3 construct: also called human FcRn
Method: (§3) The interaction of the unmodified and of conjugated anti-PD1 antibodies with the human neonatal Fc receptor (FcRn) at pH 6 was measured using the AlphaLISA Human FcRn Binding Kit (AL3095C) from Perkin Elmer (Schwerzenbach, Switzerland).
(§4) After 90 min at 23° C. in the dark, AlphaLISA signal was measured on an EnSpire plate reader (Excitation at 680 nm, Emission at 615 nm) from Perkin Elmer (Schwerzenbach, Switzerland).

[5] = molecular target: T3, recombinant biotinylated human neonatal …; test: AlphaLISA competition at pH 6: test antibody titrated against biotinylated human FcRn on donor beads; competitor: human IgG on acceptor beads
Method: as §3, §4

[6] = molecular target: T4, recombinant biotinylated human Fc gamma receptor IIa (FcγRIIa/CD32a 167H) (human, UniProt P12318 36-218, limits assumed, biotinylated); test: AlphaLISA competition; test molecule titrated against human IgG Fc acceptor beads for biotinylated FcγRIIa
T4 construct: also called FcgRIIa
T4 sequence (looked up): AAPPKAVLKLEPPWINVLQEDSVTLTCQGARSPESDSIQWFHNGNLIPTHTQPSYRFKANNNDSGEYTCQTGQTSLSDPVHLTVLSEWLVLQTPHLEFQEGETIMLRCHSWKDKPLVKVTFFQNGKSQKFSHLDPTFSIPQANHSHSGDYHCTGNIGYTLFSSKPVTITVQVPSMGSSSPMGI
Method: as §1, §2

[7] = molecular target: T5, Fc gamma receptor IIb (FcgRIIb, CD32b) (human, UniProt P31994 46-217, limits assumed); test: AlphaLISA competition or analogous assay for FcγRIIb (not described)
T5 construct: the kit is not described; also called FcRIIb
T5 sequence (looked up): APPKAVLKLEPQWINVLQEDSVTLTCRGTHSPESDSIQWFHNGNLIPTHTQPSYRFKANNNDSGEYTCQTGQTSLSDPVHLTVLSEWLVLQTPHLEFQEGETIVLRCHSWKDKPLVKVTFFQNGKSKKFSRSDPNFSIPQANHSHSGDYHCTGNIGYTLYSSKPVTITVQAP

CD20 = molecular target: T6, CD20 (human, UniProt P11836 1-297, limits assumed); test: ELISA by a method analogous to the PD-1 ELISA; antigen reagent not described
T6 construct: The CD20 reagent of the ELISA is not described (analogous methods); also called human CD20
T6 sequence: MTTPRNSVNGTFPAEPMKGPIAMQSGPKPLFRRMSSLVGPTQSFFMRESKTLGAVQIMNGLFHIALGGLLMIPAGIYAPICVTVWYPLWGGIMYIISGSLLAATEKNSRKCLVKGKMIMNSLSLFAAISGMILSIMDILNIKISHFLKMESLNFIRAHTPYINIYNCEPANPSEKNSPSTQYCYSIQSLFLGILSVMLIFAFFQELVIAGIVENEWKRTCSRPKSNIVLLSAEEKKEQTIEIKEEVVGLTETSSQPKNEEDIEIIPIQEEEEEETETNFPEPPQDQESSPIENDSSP

[8] = molecular target: recombinant biotinylated PD1/CD279 protein (AcroBiosystems PD1-H82E4) (UniProt Q15116 25-167, biotinylated); test: ELISA; antibody coated on plate, biotinylated antigen titrated, streptavidin-HRP
Method: The interaction of the unmodified and of conjugated antibodies their antigens were measured by ELISA assay.
For these PD-1 ELISAs, Corning high-binding half-area plates (Fisher Scientific, Reinach, Switzerland) were coated overnight at 4° C. with 25 μl of unmodified and of conjugated anti-PD1 antibodies at 5 μg/ml in PBS. Plates were then washed four times with 100 μl of PBS-0.02% Tween20. Plates surfaces were blocked with 25 μl of PBS-0.02% Tween20-1% BSA at 37° C. during 1 h. Plates were then washed four times with 100 μl of PBS-0.02% Tween20. […] Fifty microliters of TMB substrate reagent (#CL07, Merck, Buchs, Switzerland) were added to each well and incubated at 37° C. during 5 min. After 5 min at 37° C., Horseradish peroxidase reaction was stopped by adding 50 μl/well of 0.5M H₂SO₄ stop solution. ELISA signal was then measured at 450 nm on an EnSpire plate reader from Perkin Elmer (Schwerzenbach, Switzerland). ELISAs for other antibody/antigen pairs were performed using analogous methods.

[9] = molecular target: T4, recombinant biotinylated human Fc gamma …; test: AlphaLISA competition: test antibody titrated against biotinylated human FcγRIIa; competitor: human IgG Fc on acceptor beads; signal normalized to %; panel 'FcγR2a/CD32a Binding Assay'
Method: as §1, §2

[10] = molecular target: T1, recombinant biotinylated human Fc gamma …; test: AlphaLISA competition: test antibody titrated against biotinylated human FcγRI; competitor: human IgG Fc on acceptor beads; signal normalized to %; panel 'FcγR1/CD64 Binding Assay'
Method: as §1, §2

[11] = molecular target: T2, recombinant biotinylated human Fc gamma …; test: AlphaLISA competition: test antibody titrated against biotinylated human FcγRIIIa; competitor: human IgG Fc on acceptor beads; signal normalized to %; panel 'FcγR3a/CD16 Binding Assay'
Method: as §1, §2

B1: CMP-004 (Pembrolizumab) (antibody, human IgG4 S228P, kappa)
heavy: not shown
light: EIVLTQSPATLSLSPGERATLSCRASKGVSTSGYSYLHWYQQKPGQAPRLLIYLASYLESGVPARFSGSGSGTDFTLTISSLEPEDFAVYYCQHSRDLPLTFGGGTKVEIKRTVAAPSVFIFPPSDEQLKSGTASVVCLLNNFYPREAKVQWKVDNALQSGNSQESVTEQDSKDSTYSLSSTLTLSKADYEKHKVYACEVTHQGLSSPVTKSFNRGEC
notes: Unconjugated parent anti-PD-1 antibody (DAR 0); also called Lambrolizumab
IC50 (read off the curve) [1]: ~0.5 nM
Kd [2]: 289 nM
Kd [3]: 0.488 nM
Kd [4]: 7.31 nM
IC50 (read off the curve) [5]: ~10 nM

B2: CMP-032 (biosimilar Rituximab) (antibody, human IgG1, kappa)
heavy: not shown
light: QIVLSQSPAILSASPGEKVTMTCRASSSVSYIHWFQQKPGSSPKPWIYATSNLASGVPVRFSGSGSGTSYSLTISRVEAEDAATYYCQQWTSNPPTFGGGTKLEIKRTVAAPSVFIFPPSDEQLKSGTASVVCLLNNFYPREAKVQWKVDNALQSGNSQESVTEQDSKDSTYSLSSTLTLSKADYEKHKVYACEVTHQGLSSPVTKSFNRGEC
notes: Unconjugated parent anti-CD20 antibody (DAR 0); A biosimilar/generic rituximab was tested; also called generic rituximab
Kd [6]: 740 nM
Kd [2]: 133 nM
Kd [7]: 880 nM
Kd [3]: 0.233 nM
Kd (CD20): 0.076 nM
Kd [4]: 4.03 nM

B3: CMP-105 (LZM-009) (antibody, V domains shown)
VH: QVQLVQSGAEVKKPGASVKVSCKASGYTFTSYYMYWVRQAPGQGLEWMGGVNPSNGGTNFNEKFKSRVTITADKSTSTAYMELSSLRSEDTAVYYCARRDYRYDMGFDYWGQGTTVTVSS
VL: EIVLTQSPATLSLSPGERATISCRASKGVSTSGYSYLHWYQQKPGQAPRLLIYLASYLESGVPARFSGSGSGTDFTLTISSLEPEDFATYYCQHSRELPLTFGTGTKVEIK
notes: Unconjugated parent anti-PD-1 antibody (DAR 0); also called Livzon PD1 AB
Kd [8]: 0.035 nM

B4: CMP-016 (LZM-009 conjugated to CMP-003, DAR 1, K248) (antibody)
VH: B3 VH
VL: B3 VL
chain: APTSSSTKKTQLQLEHLLLDLQXILNGINNYKNPKLTRXLXYKFYXPKKATELKHLQCLEEELKPLEEVLXLAQSKNFHLRPRDLISNINVIVLELKGSETTFXCEYADETATIVEFLNRWITFSQSIISTLT
modifications: not fully specified; Nle at 23, 39, 46 and Hse at 41, 71, 104 (as in SEQ ID NO: 3); ~0.5 kDa PEG on Y45; 0.5 kDa PEG on F42Y whose azide end is joined to the DBCO linker of the antibody; the heavy chain carries a chemical linker to CMP-003 on Lys K248 (Eu numbering) of the Fc; DAR 1
Kd [8]: 0.037 nM

B5: CMP-028 (LZM-009 conjugated to CMP-003, DAR 1.9, K288) (antibody)
VH: B3 VH
VL: B3 VL
chain: B4 chain
modifications: not fully specified; Nle at 23, 39, 46 and Hse at 41, 71, 104 (as in SEQ ID NO: 3); ~0.5 kDa PEG on Y45; 0.5 kDa PEG on F42Y whose azide end is joined to the DBCO linker of the antibody; the heavy chain carries a chemical linker to CMP-003 on Lys K288 (Eu numbering) of the Fc; DAR 1.9
Kd [8]: 0.041 nM

B6: CMP-041 (LZM-009 conjugated to CMP-095 (IL-7), DAR 1, K248) (antibody)
VH: B3 VH
VL: B3 VL
chain: DCDIEGKDGKQYESVLXVSIDQLLDSXKEIGSNCLXNEFNFFKRHICDANKEGXFLFRAARKLRQFLKXNSTGDFXLHLLKVSEGTTILLNCTGQVKGRKPAALGEAQPTKSLXENKSLKEQKKLNDLCFLKRLLQEIKTCWNKILXGTKEH
modifications: not fully specified; Nle at 17, 27, 54, 69, 147 and Hse at 36, 76, 114 (as in SEQ ID NO: 187); N-terminal amine carries glutaryl-PEG9 whose azide end is joined to the DBCO linker of the antibody; the heavy chain carries a chemical linker to CMP-095 on Lys K248 (Eu numbering) of the Fc; DAR 1
notes: also called Livzon PD1:IL7wt
Kd [8]: 0.035 nM

B7: CMP-102 (LZM-009 conjugated to CMP-003, DAR 1, K288) (antibody)
VH: B3 VH
VL: B3 VL
chain: B4 chain
modifications: not fully specified; Nle at 23, 39, 46 and Hse at 41, 71, 104 (as in SEQ ID NO: 3); ~0.5 kDa PEG on Y45; 0.5 kDa PEG on F42Y whose azide end is joined to the DBCO linker of the antibody; the heavy chain carries a chemical linker to CMP-003 on Lys K288 (Eu numbering) of the Fc; DAR 1
Kd [8]: 0.027 nM

B8: CMP-033 (Durvalumab) (antibody, human IgG1, kappa)
heavy chain: EVQLVESGGGLVQPGGSLRLSCAASGFTFSRYWMSWVRQAPGKGLEWVANIKQDGSEKYYVDSVKGRFTISRDNAKNSLYLQMNSLRAEDTAVYYCAREGGWFGELAFDYWGQGTLVTVSSASTKGPSVFPLAPSSKSTSGGTAALGCLVKDYFPEPVTVSWNSGALTSGVHTFPAVLQSSGLYSLSSVVTVPSSSLGTQTYICNVNHKPSNTKVDKRVEPKSCDKTHTCPPCPAPEFEGGPSVFLFPPKPKDTLMISRTPEVTCVVVDVSHEDPEVKFNWYVDGVEVHNAKTKPREEQYNSTYRVVSVLTVLHQDWLNGKEYKCKVSNKALPASIEKTISKAKGQPREPQVYTLPPSREEMTKNQVSLTCLVKGFYPSDIAVEWESNGQPENNYKTTPPVLDSDGSFFLYSKLTVDKSRWQQGNVFSCSVMHEALHNHYTQKSLSLSPGK
light chain: EIVLTQSPGTLSLSPGERATLSCRASQRVSSSYLAWYQQKPGQAPRLLIYDASSRATGIPDRFSGSGSGTDFTLTISRLEPEDFAVYYCQQYGSLPWTFGQGTKVEIKRTVAAPSVFIFPPSDEQLKSGTASVVCLLNNFYPREAKVQWKVDNALQSGNSQESVTEQDSKDSTYSLSSTLTLSKADYEKHKVYACEVTHQGLSSPVTKSFNRGEC
notes: unconjugated parent anti-PD-L1 antibody; also called Imfinzi; MEDI-4736
IC50 (read off the curve) [9]: ~400 nM
binding result [10]: binds
IC50 (read off the curve) [11]: ~500 nM
